Legend:
[1] = molecular target: T1, CD28 (Homo sapiens, UniProt P10747); experiment: Jurkat/IL2 + CHO/OKT3 +/- PD-L1 reporter assay: PD-L1-dependent CD28 costimulation; type: cell-based; parameters: host or cells: Jurkat cells expressing an IL-2-luciferase reporter; details: 5.0 nM
Outline: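 Jurkat reporter cells (100,000/well) preincubated 15 min at room temperature with test protein, then cocultured 5 h at 37 °C with CHO aAPCs bearing anti-CD3 scFv (OKT3) with or without PD-L1. Luciferase luminescence (RLU) read after lysis-substrate addition.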

[2] = molecular target: huCTLA4 (Homo sapiens, UniProt P16410); experiment: Flow binding to CHO cells stably expressing CTLA4; parameters: huCTLA4 and huPD-L1, full-length mammalian surface expression constructs were generated; expressed in transfected cells; host or cells: CHO cells, lentiviral transduction, sorted to >98% purity; details: for CTLA4 MFI at 33.3 nM: CHO cells stably expressing CTLA4
Chain of huCTLA4 (P16410 36-223): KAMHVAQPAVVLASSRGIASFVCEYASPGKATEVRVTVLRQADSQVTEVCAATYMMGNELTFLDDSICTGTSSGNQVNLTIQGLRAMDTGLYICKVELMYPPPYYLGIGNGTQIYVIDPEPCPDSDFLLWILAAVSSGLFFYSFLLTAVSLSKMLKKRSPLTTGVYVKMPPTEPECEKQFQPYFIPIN
Outline: (§1)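 Fusion proteins bound to CHO cells stably expressing CTLA4 or PD-L1, or to Jurkat/IL2 reporter cells with endogenous CD28, for 45 min on ice after blocking in PBS/1% BSA. Detection with PE anti-human Fc by flow cytometry; PE MFI per cell type and binding EC50 determined.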

[3] = molecular target: huPD-L1 (Homo sapiens, UniProt Q9NZQ7); experiment: Flow binding to CHO cells stably expressing PD-L1; parameters: huCTLA4 and huPD-L1, full-length mammalian surface expression constructs were generated; expressed in transfected cells; host or cells: CHO cells, lentiviral transduction, sorted to >98% purity; details: for PD-L1 MFI at 33.3 nM: CHO cells stably expressing PD-L1; for Ratio of PDL1:CD28: ratio of MFI at 33.3 nM
Chain of huPD-L1 (Q9NZQ7 19-290): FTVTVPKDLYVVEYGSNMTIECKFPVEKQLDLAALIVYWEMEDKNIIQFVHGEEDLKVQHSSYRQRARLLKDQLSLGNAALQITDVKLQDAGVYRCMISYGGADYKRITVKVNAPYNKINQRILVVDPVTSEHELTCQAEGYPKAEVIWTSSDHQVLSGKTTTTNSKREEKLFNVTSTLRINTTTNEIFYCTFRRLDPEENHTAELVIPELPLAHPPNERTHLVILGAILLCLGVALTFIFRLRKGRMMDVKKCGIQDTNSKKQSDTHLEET
Outline: as §1

[4] = molecular target: T1, CD28; experiment: Flow binding to Jurkat/IL2 reporter cells (CD28); parameters: host or cells: Jurkat cells expressing an IL-2-luciferase reporter
Outline: as §1

[5] = Table E26, linker variants, Jurkat/IL2 + CHO/OKT3/PD-L1
[6] = Table E25, linker variants, 33.3 nM
[7] = Table E25, linker variants, 33.3 nM, Jurkats (CD28)
[8] = Table E24, Jurkat/IL2 + CHO/OKT3/PD-L1
[9] = Table E23, CD80 IgV-Fc (inert) at 33.3 nM
[10] = Table E23, MFI at 33.3 nM relative to CD80 WT IgV-Fc
[11] = Table E23, CD80 IgV-Fc (inert) at 33.3 nM, Jurkat (CD28)
[12] = Table E25, linker variants, relative to CD80 WT IgV-Fc

| Molecule | Fold Increase over WT CD80-IgV-Fe ([1]; Table E26, linker variants) | Relative Luciferase Units (RLU), CD80 Conc 5.0 nM [1, 5] | CTLA4 MFI at 33.3 nM [2, 6] | PD-L1 MFI at 33.3 nM [3, 6] | Ratio of PDL1:CD28 ([3]; Table E25, linker variants) | CD28 MFI at 33.3 nM [4, 7] | Fold Increase over WT CD80-IgV-Fe [1, 8] | Relative Luciferase Units (RLU), CD80 Conc 5.0 nM [1, 8] | CTLA4 MFI at 33.3 nM [2, 9] | CTLA4 Fold change to WT CD80 [2, 10] | PD-L1 MFI at 33.3 nM [3, 9] | PD-L1 Fold change to WT CD80 [3, 10] | Ratio of PDL1:CD28 ([3]; Table E23) | CD28 MFI at 33.3 nM [4, 11] | CD28 Fold change to WT CD80 [4, 10] | CTLA4 Fold change to WT CD80 [2, 12] | PD-L1 Fold change to WT CD80 [3, 12] | CD28 Fold change to WT CD80 [4, 12] |
| --- | --- | --- | --- | --- | --- | --- | --- | --- | --- | --- | --- | --- | --- | --- | --- | --- | --- | --- |
| E35D/M47V/N48K/V68M/K89N delta (protein) VIHVTKEVKEVATLSCGHNVSVEELAQTRIYWQKDKKMVLTMMSGDVKIWPEYKNRTIFDITNNLSIMILALRPSDEGTYECVVLKYENDAFKREHLAEVTLSVKTHTCPPCPAPEAEGAPSVFLFPPKPKDTLMISRTPEVTCVVVDVSHEDPEVKFNWYVDGVEVHNAKTKPREEQYNSTYRVVSVLTVLHQDWLNGKEYKCKVSNKALPAPIEKTISKAKGQPREPQVYTLPPSREEMTKNQVSLTCLVKGFYPSDIAVEWESNGQPENNYKTTPPVLDSDGSFFLYSKLTVDKSRWQQGNVFSCSVMHEALHNHYTQKSLSLSPG | 2.63 | 1026 RLU | 3091 | 20442 | 4 | 4678 |  |  |  |  |  |  |  |  |  |  |  |  |
| H18F/A26N/E35D/M47V/V68M/A71G/D90K (protein, UniProt P33681 35-288, looked up, variant H18F A26N E35D M47V V68M A71G D90K) T-lymphocyte activation …: VIHVTKEVKEVATLSCGFNVSVEELNQTRIYWQKDKKMVLTMMSGDVNIWPEYKNRTIFDITNNLSIMILGLRPSDEGTYECVVLKYEKKAFKREHLAEVTLSVKADFPTPSISDFEIPTSNIRRIICSTSGGFPEPHLSWLENGEELNAINTTVSQDPETELYAVSSKLDFNMTTNHSFMCLIKYGHLRVNQTFNWNTTKQEHFPDNLLPSWAITLISVNGIFVICCLTYCFAPRCRERRRNERLRRESVRPV |  |  |  |  |  |  | 5.4 | 919 RLU | 15206 | 11.0 | 22395 | 135.7 | 7.1 | 3170 | 31.1 |  |  |  |
| E35D/M47V/N48K/V68M/K89N EAAAK (protein, UniProt P33681 35-288, looked up, variant E35D M47V N48K V68M K89N, EAAAK linker) T-lymphocyte activation …: VIHVTKEVKEVATLSCGHNVSVEELAQTRIYWQKDKKMVLTMMSGDVKIWPEYKNRTIFDITNNLSIMILALRPSDEGTYECVVLKYENDAFKREHLAEVTLSVKADFPTPSISDFEIPTSNIRRIICSTSGGFPEPHLSWLENGEELNAINTTVSQDPETELYAVSSKLDFNMTTNHSFMCLIKYGHLRVNQTFNWNTTKQEHFPDNLLPSWAITLISVNGIFVICCLTYCFAPRCRERRRNERLRRESVRPV | 4.38 | 1707 RLU | 27516 | 22862 | 9 | 2634 |  |  |  |  |  |  |  |  |  | 23.0 | 490.6 | 47.1 |
| H18V/A26Q/E35D/M47V/V68L/A71G/D90G (protein, UniProt P33681 35-288, looked up, variant H18V A26Q E35D M47V V68L A71G D90G) T-lymphocyte activation …: VIHVTKEVKEVATLSCGVNVSVEELQQTRIYWQKDKKMVLTMMSGDVNIWPEYKNRTIFDITNNLSILILGLRPSDEGTYECVVLKYEKGAFKREHLAEVTLSVKADFPTPSISDFEIPTSNIRRIICSTSGGFPEPHLSWLENGEELNAINTTVSQDPETELYAVSSKLDFNMTTNHSFMCLIKYGHLRVNQTFNWNTTKQEHFPDNLLPSWAITLISVNGIFVICCLTYCFAPRCRERRRNERLRRESVRPV |  |  |  |  |  |  | 4.6 | 795 RLU | 17654 | 12.8 | 33597 | 203.6 | 10.7 | 3126 | 30.6 |  |  |  |

The remaining lines, values ahead:

| Fold Increase over WT CD80-IgV-Fe ([1]; Table E26, linker variants) | Relative Luciferase Units (RLU), CD80 Conc 5.0 nM [1, 5] | CTLA4 MFI at 33.3 nM [2, 6] | PD-L1 MFI at 33.3 nM [3, 6] | Ratio of PDL1:CD28 ([3]; Table E25, linker variants) | CD28 MFI at 33.3 nM [4, 7] | Fold Increase over WT CD80-IgV-Fe [1, 8] | Relative Luciferase Units (RLU), CD80 Conc 5.0 nM [1, 8] | CTLA4 MFI at 33.3 nM [2, 9] | CTLA4 Fold change to WT CD80 [2, 10] | PD-L1 MFI at 33.3 nM [3, 9] | PD-L1 Fold change to WT CD80 [3, 10] | Ratio of PDL1:CD28 ([3]; Table E23) | CD28 MFI at 33.3 nM [4, 11] | CD28 Fold change to WT CD80 [4, 10] | CTLA4 Fold change to WT CD80 [2, 12] | PD-L1 Fold change to WT CD80 [3, 12] | CD28 Fold change to WT CD80 [4, 12] | Molecule |
| --- | --- | --- | --- | --- | --- | --- | --- | --- | --- | --- | --- | --- | --- | --- | --- | --- | --- | --- |
| 2.77 | 1079 RLU | 12177 | 22538 | 5 | 4173 |  |  |  |  |  |  |  |  |  |  |  |  | E35D/D46V/M47L/V68M/L85Q/E88D delta (protein) VIHVTKEVKEVATLSCGHNVSVEELAQTRIYWQKDKKMVLTMMSGVLNIWPEYKNRTIFDITNNLSIMILALRPSDEGTYECVVQKYDKDAFKREHLAEVTLSVKTHTCPPCPAPEAEGAPSVFLFPPKPKDTLMISRTPEVTCVVVDVSHEDPEVKFNWYVDGVEVHNAKTKPREEQYNSTYRVVSVLTVLHQDWLNGKEYKCKVSNKALPAPIEKTISKAKGQPREPQVYTLPPSREEMTKNQVSLTCLVKGFYPSDIAVEWESNGQPENNYKTTPPVLDSDGSFFLYSKLTVDKSRWQQGNVFSCSVMHEALHNHYTQKSLSLSPG |
|  |  |  |  |  |  | 6.2 | 1053 RLU | 20911 | 15.1 | 68498 | 415.1 | 50.1 | 1366 | 13.4 |  |  |  | H18T/A26N/E35D/M47L/V68M/A71G (protein, UniProt P33681 35-288, looked up, variant H18T A26N E35D M47L V68M A71G, Fc fusion) T-lymphocyte activation …: VIHVTKEVKEVATLSCGTNVSVEELNQTRIYWQKDKKMVLTMMSGDLNIWPEYKNRTIFDITNNLSIMILGLRPSDEGTYECVVLKYEKDAFKREHLAEVTLSVKADFPTPSISDFEIPTSNIRRIICSTSGGFPEPHLSWLENGEELNAINTTVSQDPETELYAVSSKLDFNMTTNHSFMCLIKYGHLRVNQTFNWNTTKQEHFPDNLLPSWAITLISVNGIFVICCLTYCFAPRCRERRRNERLRRESVRPV |
| 5.25 | 2046 RLU | 32048 | 25461 | 129 | 197 |  |  |  |  |  |  |  |  |  | 26.8 | 546.4 | 3.5 | E35D/D46V/M47L/V68M/L85Q/E88D (EAAAK)3 (protein, UniProt P33681 35-288, looked up, variant E35D D46V M47L V68M L85Q E88D, (EAAAK)3 linker) T-lymphocyte activation …: VIHVTKEVKEVATLSCGHNVSVEELAQTRIYWQKDKKMVLTMMSGVLNIWPEYKNRTIFDITNNLSIMILALRPSDEGTYECVVQKYDKDAFKREHLAEVTLSVKADFPTPSISDFEIPTSNIRRIICSTSGGFPEPHLSWLENGEELNAINTTVSQDPETELYAVSSKLDFNMTTNHSFMCLIKYGHLRVNQTFNWNTTKQEHFPDNLLPSWAITLISVNGIFVICCLTYCFAPRCRERRRNERLRRESVRPV |
|  |  |  |  |  |  | 4.5 | 771 RLU | 22132 | 16.0 | 67503 | 409.1 | 10.8 | 6253 | 61.3 |  |  |  | H18V/A26D/E35D/M47V/V68M/A71G/D90G (protein, UniProt P33681 35-288, looked up, variant H18V A26D E35D M47V V68M A71G D90G, Fc fusion) T-lymphocyte activation …: VIHVTKEVKEVATLSCGVNVSVEELDQTRIYWQKDKKMVLTMMSGDVNIWPEYKNRTIFDITNNLSIMILGLRPSDEGTYECVVLKYEKGAFKREHLAEVTLSVKADFPTPSISDFEIPTSNIRRIICSTSGGFPEPHLSWLENGEELNAINTTVSQDPETELYAVSSKLDFNMTTNHSFMCLIKYGHLRVNQTFNWNTTKQEHFPDNLLPSWAITLISVNGIFVICCLTYCFAPRCRERRRNERLRRESVRPV |
|  |  |  |  |  |  | 4.7 | 808 RLU | 16192 | 11.7 | 52405 | 317.6 | 21.4 | 2452 | 24.0 |  |  |  | H18V/A26P/E35D/M47L/V68M/A71G (protein, UniProt P33681 35-288, looked up, variant H18V A26P E35D M47L V68M A71G) T-lymphocyte activation …: VIHVTKEVKEVATLSCGVNVSVEELPQTRIYWQKDKKMVLTMMSGDLNIWPEYKNRTIFDITNNLSIMILGLRPSDEGTYECVVLKYEKDAFKREHLAEVTLSVKADFPTPSISDFEIPTSNIRRIICSTSGGFPEPHLSWLENGEELNAINTTVSQDPETELYAVSSKLDFNMTTNHSFMCLIKYGHLRVNQTFNWNTTKQEHFPDNLLPSWAITLISVNGIFVICCLTYCFAPRCRERRRNERLRRESVRPV |
